The substances below were run against Active site-blocked human EGR-bound FIXa (human) (UniProt P00740) (assay: SPR).
UniProt P00740, sequence (P00740 47-191, chain 1 of 2): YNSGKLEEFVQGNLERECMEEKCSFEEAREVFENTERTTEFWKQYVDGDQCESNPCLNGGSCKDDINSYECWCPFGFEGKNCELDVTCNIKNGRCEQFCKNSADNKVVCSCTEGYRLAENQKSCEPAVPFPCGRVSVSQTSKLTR
UniProt P00740, sequence (P00740 227-461, chain 2 of 2): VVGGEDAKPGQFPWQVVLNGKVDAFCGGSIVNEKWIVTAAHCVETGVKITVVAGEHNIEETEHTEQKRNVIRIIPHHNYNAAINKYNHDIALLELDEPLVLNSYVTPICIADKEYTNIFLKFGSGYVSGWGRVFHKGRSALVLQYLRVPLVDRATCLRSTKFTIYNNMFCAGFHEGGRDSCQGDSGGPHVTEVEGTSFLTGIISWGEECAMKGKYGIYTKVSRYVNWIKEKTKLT

“B domain-deleted FVIII double mutant K1813A/K1818A (natural protein)” and “B domain-deleted FVIII mutant K1818A (natural protein)” are within 1.5-fold of each other in Kd: 4.7 nM for the first, 5.1 nM for the second.

Compared with “B domain-deleted WT-FVIII lacking Q744-S1637 (natural protein)”, “B domain-deleted FVIII mutant K1813A (natural protein)” is 1.6-fold lower in Kd: 6.3 nM for the first, 3.9 nM for the second. The second binds more tightly here.

Reference: paper PMC10139940
